We go through two molecules from patent publication EP4803151A2 (Lepu Biopharma Co., Ltd., dated 2026).

The target in assay [1] is T1, mouse DLL3 his tag protein (KACTUS, Cat. No. DLL-MM103) (mouse, UniProt O88516 33-490, limits assumed).
T1 construct: Bought protein; also called mDLL3-his; mouse DLL3 protein; not shown: his tag
T1 sequence (looked up): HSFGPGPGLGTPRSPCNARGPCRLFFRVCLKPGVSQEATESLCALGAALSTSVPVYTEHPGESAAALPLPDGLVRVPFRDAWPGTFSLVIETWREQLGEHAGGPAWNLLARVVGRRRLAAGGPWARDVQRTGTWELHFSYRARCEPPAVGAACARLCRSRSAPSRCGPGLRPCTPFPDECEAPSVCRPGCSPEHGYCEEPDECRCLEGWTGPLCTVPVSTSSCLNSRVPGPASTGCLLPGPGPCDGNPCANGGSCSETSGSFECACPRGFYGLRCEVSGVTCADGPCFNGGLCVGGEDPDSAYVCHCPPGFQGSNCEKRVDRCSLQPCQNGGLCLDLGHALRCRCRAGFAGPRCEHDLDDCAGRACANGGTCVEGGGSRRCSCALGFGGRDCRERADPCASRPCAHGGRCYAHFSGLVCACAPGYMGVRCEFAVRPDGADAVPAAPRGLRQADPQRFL
Nature of the assay: ELISA, mDLL3-his coated at 1 ug/mL.

In assay [2] the target is T2, human DLL4 his tag fusion protein (Sino Biological, Cat. No. 10171-H08H) (human, UniProt Q9NR61 27-524).
T2 construct: Bought protein; also called hDLL4-his; hDLL4 protein; not shown: his tag
Nature of the assay: ELISA, hDLL4-his coated at 1 ug/mL.

Assay [3] deals with T3, ECD of human DLL3 over-expressed on HEK293 cells (human, UniProt Q9NYJ7 27-492).
T3 construct: extracellular domain; also called HEK293-hDLL3; human DLL3 expressed on HEK293 cells
T3 sequence (looked up): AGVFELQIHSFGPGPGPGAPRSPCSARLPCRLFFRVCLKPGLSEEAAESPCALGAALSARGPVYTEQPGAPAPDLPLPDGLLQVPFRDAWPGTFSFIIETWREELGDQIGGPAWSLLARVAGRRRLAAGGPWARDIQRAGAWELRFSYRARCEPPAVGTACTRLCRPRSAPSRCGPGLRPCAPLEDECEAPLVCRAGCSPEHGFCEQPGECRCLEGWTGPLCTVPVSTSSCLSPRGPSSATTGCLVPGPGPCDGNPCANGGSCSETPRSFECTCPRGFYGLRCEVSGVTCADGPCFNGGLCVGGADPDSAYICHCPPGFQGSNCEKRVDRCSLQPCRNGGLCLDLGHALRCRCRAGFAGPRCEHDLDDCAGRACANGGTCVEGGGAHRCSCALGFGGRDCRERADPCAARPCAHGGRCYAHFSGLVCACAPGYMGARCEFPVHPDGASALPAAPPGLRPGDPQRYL
Nature of the assay: flow cytometry on HEK293-hDLL3 cells.

Assay [4] has as its target T4, human full length DLL1 expressed on CHO-K1 cells (human, UniProt O00548 18-723).
T4 construct: whole, on cells; also called CHO-K1-hDLL1
T4 sequence (looked up): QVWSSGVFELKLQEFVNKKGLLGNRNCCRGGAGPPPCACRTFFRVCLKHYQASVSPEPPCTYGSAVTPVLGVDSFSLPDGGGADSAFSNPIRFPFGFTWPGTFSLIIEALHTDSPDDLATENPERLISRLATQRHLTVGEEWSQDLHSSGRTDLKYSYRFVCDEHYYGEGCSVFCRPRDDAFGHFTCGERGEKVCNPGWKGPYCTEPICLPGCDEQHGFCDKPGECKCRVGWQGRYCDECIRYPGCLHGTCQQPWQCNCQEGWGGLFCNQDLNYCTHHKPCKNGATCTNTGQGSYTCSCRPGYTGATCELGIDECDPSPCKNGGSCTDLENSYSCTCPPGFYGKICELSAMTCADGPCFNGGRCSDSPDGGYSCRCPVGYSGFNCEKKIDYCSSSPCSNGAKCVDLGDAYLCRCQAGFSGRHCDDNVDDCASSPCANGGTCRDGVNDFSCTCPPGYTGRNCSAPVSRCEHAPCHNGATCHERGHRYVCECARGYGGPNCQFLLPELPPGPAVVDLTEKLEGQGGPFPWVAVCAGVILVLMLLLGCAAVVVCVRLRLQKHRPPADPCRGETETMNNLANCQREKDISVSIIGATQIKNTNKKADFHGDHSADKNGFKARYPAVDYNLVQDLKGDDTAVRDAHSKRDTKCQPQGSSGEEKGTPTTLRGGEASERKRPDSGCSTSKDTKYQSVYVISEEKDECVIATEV
Nature of the assay: flow cytometry on CHO-K1-hDLL1 cells.

The target of assay [5] is T5, ECD of human DLL3 protein fused with his tag (Acro Bio, Cat. No. DL3-H52H4) (human, UniProt Q9NYJ7 27-492).
T5 construct: range 27-492; Bought protein; also called hDLL3-his; human DLL3-his protein; not shown: his tag
T5 sequence (looked up): T3 sequence (looked up)
Nature of the assay: ELISA, hDLL3-his coated at 1 ug/mL.

Assay [6] has as its target T6, human DLL3 endogenously expressed on SCLC tumor cell lines SHP77 and NCI-H82 (human, UniProt Q9NYJ7 27-618).
T6 construct: whole, on cells; also called human DLL3 expressed on tumor cells
T6 sequence (looked up): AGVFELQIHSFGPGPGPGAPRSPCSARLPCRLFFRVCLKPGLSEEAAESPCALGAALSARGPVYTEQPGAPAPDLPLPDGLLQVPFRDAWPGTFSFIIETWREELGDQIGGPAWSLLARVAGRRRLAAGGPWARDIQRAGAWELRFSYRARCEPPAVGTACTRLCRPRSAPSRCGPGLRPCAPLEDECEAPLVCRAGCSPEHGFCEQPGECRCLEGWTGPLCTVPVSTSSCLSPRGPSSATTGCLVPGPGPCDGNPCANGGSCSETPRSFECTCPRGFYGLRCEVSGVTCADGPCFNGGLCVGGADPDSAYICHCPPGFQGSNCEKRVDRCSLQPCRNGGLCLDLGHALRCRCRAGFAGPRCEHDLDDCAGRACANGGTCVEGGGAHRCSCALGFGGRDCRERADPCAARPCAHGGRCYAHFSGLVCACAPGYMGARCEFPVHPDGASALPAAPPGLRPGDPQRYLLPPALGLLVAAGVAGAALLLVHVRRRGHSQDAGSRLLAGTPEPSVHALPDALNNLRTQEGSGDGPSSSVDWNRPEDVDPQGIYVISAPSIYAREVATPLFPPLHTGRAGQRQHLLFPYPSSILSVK
Nature of the assay: flow cytometry on SHP77 and NCI-H82 cells.

Assay [7] concerns the target T7, human DLL1 his tag fusion protein (Sino Biological, Cat. No. 11635-H08H) (human, UniProt O00548 18-540).
T7 construct: Bought protein; also called hDLL1-his; hDLL1 protein; not shown: his tag
T7 sequence (looked up): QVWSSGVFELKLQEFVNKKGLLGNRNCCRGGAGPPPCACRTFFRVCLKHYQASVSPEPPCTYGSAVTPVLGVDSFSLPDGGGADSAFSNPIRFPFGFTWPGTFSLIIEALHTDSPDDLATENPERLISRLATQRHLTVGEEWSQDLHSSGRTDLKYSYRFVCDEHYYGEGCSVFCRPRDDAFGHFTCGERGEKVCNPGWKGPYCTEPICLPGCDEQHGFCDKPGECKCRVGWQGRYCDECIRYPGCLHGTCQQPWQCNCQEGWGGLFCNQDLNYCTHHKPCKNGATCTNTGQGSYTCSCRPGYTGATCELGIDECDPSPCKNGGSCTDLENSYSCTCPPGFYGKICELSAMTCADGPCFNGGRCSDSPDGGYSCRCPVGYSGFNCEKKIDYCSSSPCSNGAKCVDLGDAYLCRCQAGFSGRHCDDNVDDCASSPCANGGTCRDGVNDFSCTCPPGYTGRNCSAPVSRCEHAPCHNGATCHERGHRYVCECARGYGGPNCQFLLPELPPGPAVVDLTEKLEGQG
Nature of the assay: ELISA, hDLL1-his coated at 1 ug/mL.

T2 sequence (Q9NR61 27-524 limits assumed): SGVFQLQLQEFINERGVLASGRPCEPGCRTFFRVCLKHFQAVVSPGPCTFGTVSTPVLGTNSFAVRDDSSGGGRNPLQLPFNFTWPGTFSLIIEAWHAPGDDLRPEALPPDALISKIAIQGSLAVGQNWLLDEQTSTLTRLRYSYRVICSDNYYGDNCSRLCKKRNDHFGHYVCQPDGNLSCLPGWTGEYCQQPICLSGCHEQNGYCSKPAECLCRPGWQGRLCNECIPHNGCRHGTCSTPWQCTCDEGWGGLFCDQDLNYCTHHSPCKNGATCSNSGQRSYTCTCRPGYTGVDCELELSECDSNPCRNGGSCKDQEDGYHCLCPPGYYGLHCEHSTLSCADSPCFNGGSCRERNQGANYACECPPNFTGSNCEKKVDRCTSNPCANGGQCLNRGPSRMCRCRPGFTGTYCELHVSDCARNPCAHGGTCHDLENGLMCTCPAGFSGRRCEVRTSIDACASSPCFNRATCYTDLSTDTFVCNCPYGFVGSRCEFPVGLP

B1: 9E8D8-hIgG1 chimeric antibody (antibody, V domains shown)
VH: QVQLQQSGAELVRPGASVKLSCKALGYTFTDSEIHWVKQTPVHGLEWIGAIHPRNGGTAYNQKFRGKATLSADRSSNTAYMELSSLTSEDSAVYYCSRGYFLDYWGQGTSVTVSS
VL: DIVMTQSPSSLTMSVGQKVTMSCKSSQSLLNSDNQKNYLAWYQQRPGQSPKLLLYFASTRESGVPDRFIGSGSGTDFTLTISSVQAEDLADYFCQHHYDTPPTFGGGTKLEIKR
Turning to B1, the binding result in assay [1] was “binds”; in assay [2] it was “no binding (tested: up to 100 nM)”; in assay [3], “binds”; in assay [4], “no binding (tested: highest dose level 100 nM)”; in assay [5] it was “binds”; in assay [6] it was “binds”. For the same molecule, in assay [7], the binding result was “no binding (tested: up to 100 nM)”.

B2: 36B7F3-hIgG1 chimeric antibody (antibody, V domains shown)
VH: QVQLQQSGPELVKPGASVKISCRASGYTFTDHHLNWVKQRPGQGLEWIGWIFPGSGSDYYNERFKDKATLTVDKSSSTAYMLLSSLTSEDSAVYFCERWDYWGQGTTLTVSS
VL: QIVLTQSPTIMSASPGEKVTMTCSASSSISYMHWYQQKPGTSPKRWIYDTSTLASGVPARFSGGGSGTSYSLTISSMEAEDAATYYCHQRSSYPLTFGAGTKLELKR
For the molecule B2, the binding result in assay [1] is “binds”; in assay [2] it was “no binding (tested: up to 100 nM)”; in assay [3], “binds”; in assay [4], “no binding (tested: highest dose level 100 nM)”; in assay [5], “binds”; in assay [6] it was “binds”. For the same molecule, the binding result in assay [7] is on record as “no binding (tested: up to 100 nM)”.
